The target of the assay is His-NPM1 (human, UniProt P06748 1-294). Briefly: pull-down.

The values that follow come from publication PMC5079111 (Cell, 2016).

Chain of His-NPM1 (P06748 whole entry): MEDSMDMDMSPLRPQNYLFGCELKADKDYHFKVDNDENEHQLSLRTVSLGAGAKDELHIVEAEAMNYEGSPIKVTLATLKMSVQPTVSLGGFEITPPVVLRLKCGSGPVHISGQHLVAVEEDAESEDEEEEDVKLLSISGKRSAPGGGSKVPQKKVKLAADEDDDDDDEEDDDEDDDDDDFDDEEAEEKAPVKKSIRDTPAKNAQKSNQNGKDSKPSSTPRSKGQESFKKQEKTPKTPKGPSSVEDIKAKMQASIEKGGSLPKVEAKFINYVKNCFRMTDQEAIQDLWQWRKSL

With GRGRGRGRGRGRGRGRGRGRGRGRGRGRGRGRGRGRGRGR [GR20-FLAG peptide], the binding result is recorded as “binds”.

PRPRPRPRPRPRPRPRPRPRPRPRPRPRPRPRPRPRPRPR [PR20-FLAG peptide]: the binding result is listed as “binds”.
